The assay concerns the target T1, FANCI (human, UniProt Q9NVI1 1-1328).
T1 construct: human FANCI
T1 sequence (looked up): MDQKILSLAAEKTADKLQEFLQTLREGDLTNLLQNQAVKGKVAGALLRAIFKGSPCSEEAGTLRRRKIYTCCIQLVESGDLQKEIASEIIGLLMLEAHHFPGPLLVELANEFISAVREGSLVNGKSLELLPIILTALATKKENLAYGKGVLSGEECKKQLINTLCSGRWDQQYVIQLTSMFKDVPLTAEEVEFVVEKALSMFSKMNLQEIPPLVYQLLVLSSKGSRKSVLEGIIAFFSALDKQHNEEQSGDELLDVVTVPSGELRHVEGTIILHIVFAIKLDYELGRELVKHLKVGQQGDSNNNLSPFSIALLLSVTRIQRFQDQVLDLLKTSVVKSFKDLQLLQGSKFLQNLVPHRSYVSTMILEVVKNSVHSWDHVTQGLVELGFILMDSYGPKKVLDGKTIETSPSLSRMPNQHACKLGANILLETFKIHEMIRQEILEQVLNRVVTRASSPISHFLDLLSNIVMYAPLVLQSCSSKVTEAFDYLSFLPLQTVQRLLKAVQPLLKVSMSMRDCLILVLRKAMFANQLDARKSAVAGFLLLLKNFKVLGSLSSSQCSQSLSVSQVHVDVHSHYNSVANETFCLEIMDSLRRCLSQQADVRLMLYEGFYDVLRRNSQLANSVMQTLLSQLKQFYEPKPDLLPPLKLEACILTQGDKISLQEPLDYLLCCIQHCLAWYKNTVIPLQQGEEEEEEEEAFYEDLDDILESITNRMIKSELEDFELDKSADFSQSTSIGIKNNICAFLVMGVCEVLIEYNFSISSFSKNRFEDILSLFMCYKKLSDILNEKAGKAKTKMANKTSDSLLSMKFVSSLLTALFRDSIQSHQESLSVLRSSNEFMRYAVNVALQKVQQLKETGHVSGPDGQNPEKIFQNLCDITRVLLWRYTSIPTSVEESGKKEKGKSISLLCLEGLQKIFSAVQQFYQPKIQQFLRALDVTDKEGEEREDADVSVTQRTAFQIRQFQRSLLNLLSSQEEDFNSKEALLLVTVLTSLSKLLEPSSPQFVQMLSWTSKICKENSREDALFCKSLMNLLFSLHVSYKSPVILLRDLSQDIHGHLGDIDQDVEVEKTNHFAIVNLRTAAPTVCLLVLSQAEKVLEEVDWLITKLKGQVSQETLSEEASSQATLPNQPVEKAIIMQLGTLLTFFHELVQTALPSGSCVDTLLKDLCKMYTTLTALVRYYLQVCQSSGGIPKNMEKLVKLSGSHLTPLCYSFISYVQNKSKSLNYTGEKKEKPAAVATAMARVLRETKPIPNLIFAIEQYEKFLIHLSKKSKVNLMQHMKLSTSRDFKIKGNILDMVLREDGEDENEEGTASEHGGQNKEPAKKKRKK
The assay is described as follows: pull-down; same procedure as for RAD51AP1, but Strep-Tactin resin captured the complexes via the Strep tag on UAF1; USP1 or FANCI as the other protein; SDS-PAGE, Coomassie Blue. Particulars: both partners purified.

B1: UAF1 (natural protein)
chain: not shown
notes: human UAF1 (isoform 1), full-length; also called UAF1 (WT); UAF1 (FL); not shown: Strep-II, C-terminal, kept
On to B1, for which the binding result is recorded as “binds”.
